Test results taken from patent publication US20210388087A1 (Chugai, published 2021).
Values belong to the binder of their own block, whether it stands above or below them.

Tests used:
[1] = target: human CD137 expressed on cells (human, UniProt Q07011 24-255); experiment: cell-based or functional assay
Human CD137 ECD [2] = target: T1, Human CD137 ECD (human); experiment: SPR (Biacore T200), 37 degrees C, antibody captured by anti-human Fc on CM4 chip, recombinant human CD137 as analyte, 1:1 model; 37 degrees C
T1 construct: also called recombinant human CD137
T1 sequence (chain, as listed by the source limits assumed): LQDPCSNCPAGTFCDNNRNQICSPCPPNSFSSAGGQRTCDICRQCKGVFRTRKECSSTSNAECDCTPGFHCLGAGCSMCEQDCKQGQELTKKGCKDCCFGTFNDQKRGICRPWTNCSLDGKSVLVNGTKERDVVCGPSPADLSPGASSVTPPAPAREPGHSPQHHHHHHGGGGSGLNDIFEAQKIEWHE
Protocol: (§1) (15-2) Evaluation of the Binding of GPC3/CD3/Human CD137 Trispecific Antibodies Binding Affinity of Trispecific Antibodies to Human CD3 and CD137 were Assessed at 37 Degrees C. Using Binding affinity of trispecific antibodies to human CD3 and CD137 were assessed at 37 degrees C. using Biacore T200 instrument (GE Healthcare). Anti-human Fc antibody (GE Healthcare) was immobilized onto all flow cells of a CM4 sensor chip using amine coupling kit (GE Healthcare). Antibodies were captured onto the anti-Fc sensor surfaces, then recombinant human CD3 or CD137 was injected over the flow cell. All antibodies and analytes were prepared in ACES pH 7.4 containing 20 mM ACES, 150 mM NaCl, 0.05% Tween 20, 0.005% NaN3. Sensor surface was regenerated each cycle with 3M MgCl2.

Human CD3eg linker [3] = target: T2, Human CD3eg linker (human); experiment: SPR (Biacore T200), 37 degrees C, antibody captured by anti-human Fc on CM4 chip, recombinant human CD3 as analyte, 1:1 model
T2 construct: also called recombinant human CD3
T2 chain: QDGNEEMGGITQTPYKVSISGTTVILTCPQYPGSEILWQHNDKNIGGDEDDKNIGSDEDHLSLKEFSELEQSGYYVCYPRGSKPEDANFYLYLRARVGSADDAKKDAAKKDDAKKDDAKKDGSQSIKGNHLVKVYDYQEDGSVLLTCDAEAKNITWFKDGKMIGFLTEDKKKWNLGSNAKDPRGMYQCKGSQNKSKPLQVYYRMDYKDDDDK
Protocol: as §1

Human CD137 ECD [4] = target: T1, Human CD137 ECD; experiment: SPR (Biacore T200), 37 degrees C, antibody captured by anti-human Fc on CM4 chip, recombinant human CD137 as analyte, 1:1 model
Protocol: as §1

Human CD137 ECD [5] = target: T3, Human CD137 ECD (human); experiment: SPR Biacore T200, 37 C, Ab captured on anti-human Fc, antigen as analyte
T3 construct: also called human CD137 extracellular domain; recombinant human CD137
T3 sequence (chain, as listed by the source limits assumed): as the sequence (chain, as listed by the source limits assumed) above
Protocol: (§2) Binding affinity of trispecific antibodies to human CD3 and CD137 were assessed at 37 degrees C. using Biacore T200 instrument (GE Healthcare). Anti-human Fc antibody (GE Healthcare) was immobilized onto all flow cells of a CM4 sensor chip using amine coupling kit (GE Healthcare). Antibodies were captured onto the anti-Fc sensor surfaces, then recombinant human CD3 or CD137 was injected over the flow cell. All antibodies and analytes were prepared in ACES pH 7.4 containing 20 mM ACES, 150 mM NaCl, 0.05% Tween 20, 0.005% NaN3. Sensor surface was regenerated each cycle with 3M MgCl₂.

Human CD3eg linker [6] = target: T4, Human CD3eg linker (human); experiment: as above
T4 construct: Single chain: CD3 epsilon and gamma subunits joined by a 29-mer linker, Flag-tag at the C-terminus; also called recombinant human CD3
T4 chain: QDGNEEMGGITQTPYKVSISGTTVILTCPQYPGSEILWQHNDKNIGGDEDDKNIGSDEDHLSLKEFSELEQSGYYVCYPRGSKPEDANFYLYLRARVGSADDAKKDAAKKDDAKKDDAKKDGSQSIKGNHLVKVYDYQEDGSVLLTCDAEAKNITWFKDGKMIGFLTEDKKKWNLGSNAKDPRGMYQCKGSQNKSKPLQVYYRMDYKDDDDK
Protocol: as §2

[7] = target: T5, Extracellular domain (24-186) of human CD137 (human, UniProt Q07011 24-186); experiment: complex formation, gel filtration
T5 construct: Fc cleaved off; also called hCD137; CD137 extracellular domain
T5 sequence (Q07011 24-186 limits assumed): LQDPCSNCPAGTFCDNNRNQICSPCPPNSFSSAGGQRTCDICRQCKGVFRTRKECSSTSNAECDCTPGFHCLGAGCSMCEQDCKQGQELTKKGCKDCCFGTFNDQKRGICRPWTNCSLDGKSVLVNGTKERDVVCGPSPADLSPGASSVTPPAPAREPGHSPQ
Protocol: Purified CD137 was mixed with GST-tag fused Endoglycosidase F1(in-house) for deglycosylation, followed by purification of CD137 using gel filtration column (HiLoad 16/600 Superdex 200 pg, GE healthcare) and Protein A column (HiTrap MabSelect SuRe 1 ml, GE Healthcare). […] The ternary complex was purified by gel filtration chromatography (Superdex200 10/300 increase, GE Healthcare) using a column equilibrated with 25 mM HEPES pH 7.3, 100 mM NaCl.

[8] = target: T6, biotin-labeled cynomolgus monkey CD137 fused to human IgG1 Fc fragment (cynomolgus monkey; human, UniProt Q07011 24-186, limits assumed, biotin-labeled); experiment: ELISA on streptavidin beads
T6 construct: also called cyno CD137-Fc; not shown: human IgG1 Fc fragment
T6 chain: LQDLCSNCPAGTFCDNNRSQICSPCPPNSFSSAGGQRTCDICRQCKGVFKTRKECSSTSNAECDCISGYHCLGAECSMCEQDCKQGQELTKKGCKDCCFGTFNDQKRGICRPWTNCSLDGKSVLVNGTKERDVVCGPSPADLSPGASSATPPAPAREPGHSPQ

[9] = target: T7, biotin-labeled human CD137 fused to human IgG1 Fc fragment (human, UniProt Q07011 24-186, biotin-labeled); experiment: bead ELISA, 1250 ng IgG, S/N over biotin-human Fc
T7 construct: also called human CD137-Fc; biotin-human CD137-Fc; not shown: human IgG1 Fc fragment
T7 sequence (Q07011 24-186 limits assumed): as the sequence (Q07011 24-186 limits assumed) above

[10] = target: T7, biotin-labeled human CD137 fused to …; experiment: ELISA on streptavidin beads, purified IgG

Chain of human CD137 expressed on cells (Q07011 24-255): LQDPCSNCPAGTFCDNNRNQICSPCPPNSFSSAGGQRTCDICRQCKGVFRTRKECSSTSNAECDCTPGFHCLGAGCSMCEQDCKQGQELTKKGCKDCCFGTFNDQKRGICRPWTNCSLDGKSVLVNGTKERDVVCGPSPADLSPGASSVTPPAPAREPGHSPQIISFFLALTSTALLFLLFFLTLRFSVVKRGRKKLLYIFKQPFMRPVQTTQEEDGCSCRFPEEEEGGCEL

Luminescence against CD137 positive cells relative to that against GPC3 positive cells, 1 nM [1]: ~107% | Luminescence against CD137 positive cells relative to that against GPC3 positive cells, 10 nM [1]: ~128%
B1: GPC3/CD137×CD3 trispecific antibody (other)
VH 1: QVQLQQWGAGLLKPSETLSLTCAVYGGSFSGYYWSWIRQSPEKGLEWIGEINHGGYVTYNPSLESRVTISVDTSKNQFSLKLSSVTAADTAVYYCARDYGPGNYDWYFDLWGRGTLVTVSS
VL 1: EIVLTQSPATLSLSPGERATLSCRASQSVSSYLAWYQQKPGQAPRLLIYDASNRATGIPARFSGSGSGTDFTLTISSLEPEDFAVYYCQQRSNWPPALTFGGGTKVEIK
VH 2: QVQLVESGGGLVQPGRSLRLSCAASGFTFSNAWMHWVRQAPGKGLEWVAQIKDRANSYNTYYAESVKGRFTISRDDSKNSIYLQMNSLKTEDTAVYYCRYVHYTTYAGSSFSYGVDAWGQGTTVTVSS
VL 2: DIVMTQSPLSLPVTPGEPASISCRSSQPLVHSNRNTYLHWYQQKPGQAPRLLIYKVSNRFSGVPDRFSGSGSGTDFTLKISRVEAEDVGVYYCGQGTQVPYTFGQGTKLEIK
VH 3: QVQLVQSGAEVKKPGASVTVSCKASGYTFTDYEMHWIRQPPGEGLEWIGAIDGPTPDTAYSEKFKGRVTLTADKSTSTAYMELSSLTSEDTAVYYCTRFYSYTYWGQGTLVTVSS
VL 3: DIVMTQSPLSLPVTPGEPASISCRSSQPLVHSNRNTYLHWYQQKPGQAPRLLIYKVSNRFSGVPDRFSGSGSGTDFTLKISRVEAEDVGVYYCGQGTQVPYTFGQGTKLEIK

kon (Human CD137 ECD [2]): 547000 M⁻¹ s⁻¹ | Kd (Human CD3eg linker [3]): 19.7 nM | koff (Human CD3eg linker [3]): 0.00161 s⁻¹ | kon (Human CD3eg linker [3]): 81800 M⁻¹ s⁻¹ | Kd (Human CD137 ECD [4]): 37.7 nM | koff (Human CD137 ECD [4]): 0.0206 s⁻¹
B2: GPC3/CD137 × CD3 trispecific antibody (antibody, V domains shown)
VH 1: QVQLQQWGAGLLKPSETLSLTCAVYGGSFSGYYWSWIRQSPEKGLEWIGEINHGGYVTYNPSLESRVTISVDTSKNQFSLKLSSVTAADTAVYYCARDYGPGNYDWYFDLWGRGTLVTVSS
VL 1: EIVLTQSPATLSLSPGERATLSCRASQSVSSYLAWYQQKPGQAPRLLIYDASNRATGIPARFSGSGSGTDFTLTISSLEPEDFAVYYCQQRSNWPPALTFGGGTKVEIK
VH 2: QVQLVESGGGLVQPGRSLRLSCAASGFTFSNAWMHWVRQAPGKGLEWVAQIKDRANSYNTYYAESVKGRFTISRDDSKNSIYLQMNSLKTEDTAVYYCRYVHYTTYAGSSFSYGVDAWGQGTTVTVSS
VL 2: DIVMTQSPLSLPVTPGEPASISCRSSQPLVHSNRNTYLHWYQQKPGQAPRLLIYKVSNRFSGVPDRFSGSGSGTDFTLKISRVEAEDVGVYYCGQGTQVPYTFGQGTKLEIK
VH 3: QVQLVQSGAEVKKPGASVTVSCKASGYTFTDYEMHWIRQPPGEGLEWIGAIDGPTPDTAYSEKFKGRVTLTADKSTSTAYMELSSLTSEDTAVYYCTRFYSYTYWGQGTLVTVSS
VL 3: DIVMTQSPLSLPVTPGEPASISCRSSQPLVHSNRNTYLHWYQQKPGQAPRLLIYKVSNRFSGVPDRFSGSGSGTDFTLKISRVEAEDVGVYYCGQGTQVPYTFGQGTKLEIK
notes: Trispecific mAb AB made by Fab-arm exchange from mAb A (CrossMab, two Fv per arm: Fv A1 and Fv A2) and mAb B (conventional IgG, Fv B); Fc gamma R-silent, deglycosylated Fc; also called GPC3/CD137xCD3

Kd (Human CD137 ECD [5]): 37.7 nM | koff (Human CD137 ECD [5]): 0.0206 s⁻¹ | kon (Human CD137 ECD [5]): 547000 M⁻¹ s⁻¹ | Kd (Human CD3eg linker [6]): 19.7 nM | koff (Human CD3eg linker [6]): 0.00161 s⁻¹ | kon (Human CD3eg linker [6]): 81800 M⁻¹ s⁻¹
B3: GPC3/CD137xCD3 (bispecific antibody, V domains shown)
VH 1: QVQLQQWGAGLLKPSETLSLTCAVYGGSFSGYYWSWIRQSPEKGLEWIGEINHGGYVTYNPSLESRVTISVDTSKNQFSLKLSSVTAADTAVYYCARDYGPGNYDWYFDLWGRGTLVTVSS
VL 1: EIVLTQSPATLSLSPGERATLSCRASQSVSSYLAWYQQKPGQAPRLLIYDASNRATGIPARFSGSGSGTDFTLTISSLEPEDFAVYYCQQRSNWPPALTFGGGTKVEIK
VH 2: QVQLVESGGGLVQPGRSLRLSCAASGFTFSNAWMHWVRQAPGKGLEWVAQIKDRANSYNTYYAESVKGRFTISRDDSKNSIYLQMNSLKTEDTAVYYCRYVHYTTYAGSSFSYGVDAWGQGTTVTVSS
VL 2: DIVMTQSPLSLPVTPGEPASISCRSSQPLVHSNRNTYLHWYQQKPGQAPRLLIYKVSNRFSGVPDRFSGSGSGTDFTLKISRVEAEDVGVYYCGQGTQVPYTFGQGTKLEIK
VH 3: QVQLVQSGAEVKKPGASVTVSCKASGYTFTDYEMHWIRQPPGEGLEWIGAIDGPTPDTAYSEKFKGRVTLTADKSTSTAYMELSSLTSEDTAVYYCTRFYSYTYWGQGTLVTVSS
VL 3: DIVMTQSPLSLPVTPGEPASISCRSSQPLVHSNRNTYLHWYQQKPGQAPRLLIYKVSNRFSGVPDRFSGSGSGTDFTLKISRVEAEDVGVYYCGQGTQVPYTFGQGTKLEIK
notes: Fc gamma R silent Fc; also called GPC3/CD137 x CD3 trispecific antibody (2+1)

binding result [7]: binds
B4: H0868L0581 Fab (Fab, V domains shown)
VH: QVQLVESGGGLVQPGRSLRLSCAASGFKFSNVWMHWVRQAPGKGLEWVAQIKDKYNAYAAYYAPSVKGRFTISRDDSKNSIYLQMNSLKTEDTAVYYCHYVHYASASTLLPAFGVDAWGQGTTVTVSS
VL: DIVMTQSPLSLPVTPGEPASISCQPSQEVVHMNRNTYLHWYQQKPGQAPRLLIYKVSNRFPGVPDRFSGSGSGTDFTLKISRVEAEDVGVYYCAQGTSHPFTFGQGTKLEIK
notes: Fab made by limited Lys-C digestion of the bivalent antibody; also called H0868L581; Fab fragment of H0868L0581

binding result [9]: binds
B5: dBBDu126 (antibody, human IgG1, V domains shown)
VH: QVQLVESGGGLVQPGRSLRLSCAASGFTFSIAWMHWVRQAPGKGLEWVAQIKDRVNAYEAYYAPSVKGRFTISRDDSKNSIYLQMNSLKTEDTAVYYCRYVHYASYYDLLGYGGVDAWGQGTTVTVSS
VL: DIVMTQSPLSLPVTPGEPASISCRSSQSLVHSNRNTYLHWYQQKPGQAPRLLIYKVSNRFSGVPDRFSGSGSGTDFTLKISRVEAEDVGVYYCGQGTQVPYTFGQGTKLEIK
notes: human IgG1; GLS3000 light chain; also called DADU01_3 #001; DADU01_3_#001
binding result [8]: no binding (tested: 25 micro L of 50 ng/micro L purified IgG)

binding result [10]: binds
B6: dBBDu127 (antibody, human IgG1, V domains shown)
VH: QVQLVESGGGLVQPGRSLRLSCAASGFTFSNAWMHWVRQAPGKGLEWVAQIKDRGQQYNAYYAPSVKGRFTISRDDSKNSIYLQMNSLKTEDTAVYYCHYVHYASASSVLPGYGVDAWGQGTTVTVSS
VL: DIVMTQSPLSLPVTPGEPASISCRSSQSLVHSNRNTYLHWYQQKPGQAPRLLIYKVSNRFSGVPDRFSGSGSGTDFTLKISRVEAEDVGVYYCGQGTQVPYTFGQGTKLEIK
notes: human IgG1; GLS3000 light chain; also called DXDU01_3 #051; DXDU01_3_#051
